Reference: publication PMC6727974 (Nature microbiology, 2018)

T1: EV-D68 capsid protein VP1 (strain STL-2014-12) (Enterovirus D68, STL-2014-12 (KM881710), strain)
T1 chain: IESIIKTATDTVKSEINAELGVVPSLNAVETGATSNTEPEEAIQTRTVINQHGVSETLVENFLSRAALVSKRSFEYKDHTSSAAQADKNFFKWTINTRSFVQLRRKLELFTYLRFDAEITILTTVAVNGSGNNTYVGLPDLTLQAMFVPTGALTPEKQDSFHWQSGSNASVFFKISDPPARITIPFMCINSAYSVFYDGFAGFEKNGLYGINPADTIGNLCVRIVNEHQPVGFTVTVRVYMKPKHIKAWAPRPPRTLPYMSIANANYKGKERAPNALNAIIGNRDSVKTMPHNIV

T2: EV-D68 capsid protein VP3 (strain STL-2014-12) (Enterovirus D68, STL-2014-12 (KM881710), strain)
T2 chain: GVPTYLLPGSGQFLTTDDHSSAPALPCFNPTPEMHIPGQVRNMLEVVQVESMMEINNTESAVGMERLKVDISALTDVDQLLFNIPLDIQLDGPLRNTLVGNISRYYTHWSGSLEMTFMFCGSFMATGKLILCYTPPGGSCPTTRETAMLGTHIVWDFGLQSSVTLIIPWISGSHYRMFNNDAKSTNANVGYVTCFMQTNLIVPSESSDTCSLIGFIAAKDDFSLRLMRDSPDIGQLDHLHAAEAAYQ

T3: EV-D68 capsid protein VP2 (strain STL-2014-12) (Enterovirus D68, STL-2014-12 (KM881710), strain)
T3 chain: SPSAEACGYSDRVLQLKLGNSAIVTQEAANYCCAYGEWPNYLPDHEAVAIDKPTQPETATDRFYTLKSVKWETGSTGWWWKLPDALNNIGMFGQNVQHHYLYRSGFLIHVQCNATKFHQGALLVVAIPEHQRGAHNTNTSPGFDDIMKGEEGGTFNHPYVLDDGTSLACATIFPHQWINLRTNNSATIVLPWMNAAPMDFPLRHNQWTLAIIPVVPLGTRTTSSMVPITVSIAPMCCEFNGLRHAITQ

B1: Fab 11G1 (Fab, V domains shown)
VH: QVQLQQSGAELVRPGVSVKISCKGSGYIFTDYVMHWVKQSHSKSLEWIGVISTYYGDGSYNQKFKGKATMTVDKSSSTAYMELARLTSEDSAIYYCVRGENYYGVSGTMDYWGQGTSVTVSS
VL: DIVMSQSPSSLAVSVGEKVTMSCKSSQSLLYSNNQKNYLAWYQQKPGQSPQLLIYWASTRESGVPDRFTGSESGTDFTLTISSVKAEDLAVFYCQQYYNYPWTFGGGTKLEIK
B2: Fab 15C5 (Fab, V domains shown)
VH: QVQLQQSGTELAKPGASVKMSCKASGYTFTNYWMHWFKQRPGQGLEWIGYVNPNTDYTDYNHKFKDKATLTADKSSSTAYMQLSSLTSEDSAVYFCARGTFGNYASFAYWGQGTLV
VL: DIQMIQSPSSMFASLGDRVSLSCRASQDIRGNLDWYQQKPGGTIKLLIYSTSNLNSGVPSRFSGSGSGSDYSLTISSLESEDFADYYCLQRNAYPLTFGGGTKLEIK
B3: monoclonal antibody 15C5 (antibody, V domains shown)
VH: QVQLQQSGTELAKPGASVKMSCKASGYTFTNYWMHWFKQRPGQGLEWIGYVNPNTDYTDYNHKFKDKATLTADKSSSTAYMQLSSLTSEDSAVYFCARGTFGNYASFAYWGQGTLV
VL: DIQMIQSPSSMFASLGDRVSLSCRASQDIRGNLDWYQQKPGGTIKLLIYSTSNLNSGVPSRFSGSGSGSDYSLTISSLESEDFADYYCLQRNAYPLTFGGGTKLEIK

Tests used:
[1] = molecular target: EV-D68 A-particle (strain STL-2014-12) (Enterovirus D68, STL-2014-12 (KM881710), strain); assay: cryo-EM structure
[2] = molecular target: T1, EV-D68 capsid protein VP1 (strain …); assay: cryo-EM structure
[3] = molecular target: T4, EV-D68 procapsid (strain STL-2014-12) (Enterovirus D68, STL-2014-12 (KM881710), UniProt A0A097F8Q2;PDB, strain); assay: cryoEM with 2D classification
[4] = molecular target: T2, EV-D68 capsid protein VP3 (strain …); assay: cryo-EM structure
[5] = molecular target: T3, EV-D68 capsid protein VP2 (strain …); assay: cryo-EM structure
[6] = molecular target: T4, EV-D68 procapsid (strain STL-2014-12); assay: ELISA

Binder	stoichiometry N [1] [copies per particle]	binding result [2]	binding result [3]	binding result [4]	binding result [5]	binding result [6]
B1	60	binds	–	–	–	–
B2	60	–	binds	binds	binds	–
B3	–	–	–	–	–	binds
